Data as given in paper PMC12439037 (RSC Chemical Biology, 2025).
Ends that are not written are not given here. * marks the point of attachment. Myristoyl = CCCCCCCCCCCCCC(=O)*

Columns and labels:
Assay in all cases: crystal structure
[1] = target: T1, SIRT2^F96A (human SIRT2 residues 50–356, F96A) (human, UniProt Q8IXJ6 50-356, F96A)
T1 sequence (looked up): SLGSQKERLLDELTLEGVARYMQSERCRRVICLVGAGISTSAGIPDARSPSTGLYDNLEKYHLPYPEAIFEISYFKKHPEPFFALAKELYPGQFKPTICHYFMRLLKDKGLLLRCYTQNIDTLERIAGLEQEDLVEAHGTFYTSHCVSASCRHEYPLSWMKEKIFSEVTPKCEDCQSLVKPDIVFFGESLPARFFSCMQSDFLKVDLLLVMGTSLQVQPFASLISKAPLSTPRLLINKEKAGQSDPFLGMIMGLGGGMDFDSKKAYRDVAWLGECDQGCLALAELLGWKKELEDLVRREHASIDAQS

[2] = target: T2, human SIRT2 (residues 50–356) (human, UniProt Q8IXJ6 50-356)
T2 sequence (looked up): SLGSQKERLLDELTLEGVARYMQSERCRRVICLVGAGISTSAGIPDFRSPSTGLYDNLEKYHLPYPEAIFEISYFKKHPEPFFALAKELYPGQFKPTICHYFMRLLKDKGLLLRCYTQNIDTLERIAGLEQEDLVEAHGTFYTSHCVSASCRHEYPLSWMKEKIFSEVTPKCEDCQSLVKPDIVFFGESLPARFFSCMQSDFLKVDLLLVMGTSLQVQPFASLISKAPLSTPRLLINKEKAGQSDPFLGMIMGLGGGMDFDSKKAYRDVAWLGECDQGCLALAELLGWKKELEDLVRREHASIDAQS

[3] = target: T3, SIRT2^H187A (human SIRT2 residues 50–356, H187A) (human, UniProt Q8IXJ6 50-356, H187A)
T3 sequence (looked up): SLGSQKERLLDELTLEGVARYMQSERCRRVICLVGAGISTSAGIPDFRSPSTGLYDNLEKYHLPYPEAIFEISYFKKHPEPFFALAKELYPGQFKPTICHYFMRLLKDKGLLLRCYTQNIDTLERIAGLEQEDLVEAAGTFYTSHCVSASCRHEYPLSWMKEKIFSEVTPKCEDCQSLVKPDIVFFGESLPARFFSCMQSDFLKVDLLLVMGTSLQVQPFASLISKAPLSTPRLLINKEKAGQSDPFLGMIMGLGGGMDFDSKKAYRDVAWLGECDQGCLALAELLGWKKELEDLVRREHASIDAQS

Measured: binding result

B1: H3K18myr peptide (APRKmyrQLA) (peptide)
peptide: APRK(Myristoyl)QLA
binds: all assays above
